The term Kd denotes the free concentration of one partner at which half of the binding sites on the other are occupied at equilibrium, for simple one-to-one binding.

From PMC8101287, “Molecular characterization of HLA class II binding to the LAG‐3 T cell co‐inhibitory receptor” (European Journal of Immunology, 2020) come the findings set out here.

The assay addresses HLA‐DR1 (HLA‐DRA1*01:01/HLA‐DRB*01:01) complexed with the HA_(306‐318) peptide, refolded from E. coli (human | ). In words: SPR. Particulars: both partners purified.

B1: LAG‐3:Fc fusion protein (four extracellular domains of LAG‐3 and the Fc domain of IgG) (Fc fusion)
chain: LQPGAEVPVVWAQEGAPAQLPCSPTIPLQDLSLLRRAGVTWQHQPDSGPPAAAPGHPLAPGPHPAAPSSWGPRPRRYTVLSVGPGGLRSGRLPLQPRVQLDERGRQRGDFSLWLRPARRADAGEYRAAVHLRDRALSCRLRLRLGQASMTASPPGSLRASDWVILNCSFSRPDRPASVHWFRNRGQGRVPVRESPHHHLAESFLFLPQVSPMDSGPWGCILTYRDGFNVSIMYNLTVLGLEPPTPLTVYAGAGSRVGLPCRLPAGVGTRSFLTAKWTPPGGGPDLLVTGDNGDFTLRLEDVSQAQAGTYTCHIHLQEQQLNATVTLAIITVTPKSFGSPGSLGKLLCEVTPVSGQERFVWSSLDTPSQRSFSGPWLEAQEAQLLSQPWQCQLYQGERLLGAAVYFTELSSPGAQRSGRAPGALPAGHL
On to B1, for which binding was put at a Kd of 13.1 µM. This counts as double-digit micromolar.
